Series [1] concerns NagR (Bifidobacterium longum subsp. infantis ATCC 15697 (= JCM 1222)). As to the kind of experiment: EMSA. The following applies: no robust shift even at >500 nM NagR; 10 mM Tris-HCl pH 7.5, 50 mM KCl, 5 mM MgCl2, 2.25 mM DTT, 0.125% Tween 20, 2.5% glycerol; 1 nM probe, 0-2000 nM NagR, 60 min, room temperature; 6% gel, 0.5x ….
Another series addresses T1, NagR (Bifidobacterium longum, UniProt A0ACD7UQ49).
T1 construct: gene BLIJ_0896; full-length as described, N-terminal His tag, codon-optimized synthetic gene in in-house pET-49b(+), expressed in E. coli BL21(DE3), Ni-NTA purified; tag removal not mentioned
T1 sequence (A0ACD7UQ49 36-409 limits assumed): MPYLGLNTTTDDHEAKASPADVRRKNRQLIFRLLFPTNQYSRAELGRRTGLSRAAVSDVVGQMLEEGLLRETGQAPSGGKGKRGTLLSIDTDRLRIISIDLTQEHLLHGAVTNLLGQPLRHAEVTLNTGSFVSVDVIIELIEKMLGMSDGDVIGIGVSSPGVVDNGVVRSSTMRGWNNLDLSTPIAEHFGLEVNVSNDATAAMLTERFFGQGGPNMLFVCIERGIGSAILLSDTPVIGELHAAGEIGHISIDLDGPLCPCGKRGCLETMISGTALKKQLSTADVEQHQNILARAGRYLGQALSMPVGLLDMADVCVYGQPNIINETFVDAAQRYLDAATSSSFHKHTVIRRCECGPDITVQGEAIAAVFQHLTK
Kind of series: EMSA, disruption of NagR-DNA complex. It is filed as binding. The following applies: 25 nM NagR, 1 nM IRD700-labelled hmoA operator probe; pH 7.5, 50 mM KCl, 5 mM MgCl2, room temperature; effector releasing DNA.

In the case of “GGGCCTGATGCAAATATGTTAAGGCTGTTGACAGTGCTGGCTCCCGTAC (double strand) [hmoA6 probe]”, the K half in series [1] was above 500 nM. As for “ATTTCGTCGTTGAAATTGTTATGAAACTTCACCAATAAATTCCAGTGTA (double strand) [nagB_II probe]”, in series [1], the K half is above 500 nM.

In turn, `CC(=O)N[C@H]1[C@@H](OP(=O)(O)O)O[C@H](CO)[C@@H](O)[C@@H]1O` [GlcNAc-1P] had an EC50 on NagR of 490 ± 60 µM. The same measure, in the same setting: with `CC(=O)N[C@H]1C(O)O[C@H](CO)[C@@H](O)[C@@H]1O` (stereo partly shown) [GlcNAc] the figure was 330 ± 50 µM.

The record behind these values is paper PMC9599254, “Human Milk Oligosaccharide Utilization in Intestinal Bifidobacteria Is Governed by Global Transcriptional Regulator NagR” (mSystems, 2022).
